33 molecules from PMC12377726 (Proceedings of the National Academy of Sciences of the …, 2025) can be followed below.

Where a chain is given by its changes, count along the chain named.

B1: G001_gp1_V06_VRC01c_2021-0027 (antibody, V domains shown)
VH: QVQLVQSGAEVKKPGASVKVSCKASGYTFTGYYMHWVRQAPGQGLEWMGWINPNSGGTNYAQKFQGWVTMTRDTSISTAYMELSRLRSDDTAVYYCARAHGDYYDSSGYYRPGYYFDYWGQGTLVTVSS
VL: QSVLTQPPSVSGAPGQRVTISCTGSSSNIGAGYDVHWYQQLPGTAPKLLIYGNSNRPSGVPDRFSGSKSGTSASLAITGLQAEDEADYYCQSYEVFGGGTKLTVL
B2: G001_gp1_V06_VRC01c_2021-0003 (antibody, V domains shown)
VH: QVQLVQSGAEVKKPGASVKVSCKASGYTFTGYYIHWVRQAPGQGLEWMGWINPNSGGTNYAQKFQGWVTMTRDTSISTAYMELRRLRSDDTAVYYCARVKDYYDSIGGWYFDLWGRGTLVTVSS
VL: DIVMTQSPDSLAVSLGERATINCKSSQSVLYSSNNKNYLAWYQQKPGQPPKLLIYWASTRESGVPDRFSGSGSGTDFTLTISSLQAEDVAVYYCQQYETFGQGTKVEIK
B3: G001_gp1_V06_VRC01c_2021-0010 (antibody, V domains shown)
VH: QVQLVQSGAEVKKPGASVKVSCKASGYTFTGYYMQWMRQAPGQGLEWMGWINPNSGGTNYAQKFQGWVTMTRDTSISTVYMELSRLRSDDTAVYYCARGFTNWNLDYWGQGTLVTVSS
VL: EIVLTQSPGTLSLSPGERATLSCRASQSVSSSYLAWYQQKPGQAPRLLIYGASSRATGIPDRFSGSGSGTDFTLTISRLEPEDFAMYYCQQYETFGQGTKVEIK
B4: G001_gp1_V06_VRC01c_2021-0019 (antibody, V domains shown)
VH: QVQLVQSGAEVKKPGASVKVSCKASGYTFTGYYMHWVRQAPGQGLEWMGWINPNSGGTNYAQKFQDWVTMTRDTSISTAYMELRRLRSDDTAVYYCARPSYRSGWDMWYWGQGTLVTVSS
VL: B3 VL with M86V, T94G, Q97P, E102D
B5: G001_gp1_V06_VRC01c_2021-0028 (antibody, V domains shown)
VH: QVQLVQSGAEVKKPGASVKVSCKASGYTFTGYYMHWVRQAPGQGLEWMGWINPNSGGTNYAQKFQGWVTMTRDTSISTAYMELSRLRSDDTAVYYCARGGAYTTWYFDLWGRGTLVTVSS
VL: B3 VL with S31G, A52S, M86V
B6: G001_gp1_V06_VRC01c_2021-0016 (antibody, V domains shown)
VH: QVQLVQSGAEVKKPGASVTVSCKASGYTFTGYYMHWVRQAPGQGLEWMGWINPTSGGTNYGQKFQGRVTMTRDTSISTAYMELSRLRSDDTAVYYCAITTVTSTWAFDIWGQGTMVTVSS
VL: B3 VL with S31N, S32N, K40T, M86V
B7: G001_gp1_V06_VRC01c_2021-0026 (antibody, V domains shown)
VH: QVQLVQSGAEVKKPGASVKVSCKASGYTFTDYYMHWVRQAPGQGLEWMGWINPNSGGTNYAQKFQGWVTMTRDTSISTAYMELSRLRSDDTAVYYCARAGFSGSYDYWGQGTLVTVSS
VL: B3 VL with S26C, M86V, V101L
B8: G001_gp1_V06_VRC01c_2021-0017 (antibody, V domains shown)
VH: not shown
VL: B3 VL with M86V, T94F, Q97P, E102D
B9: G001_gp1_V06_VRC01c_2021-0011 (antibody, V domains shown)
VH: QVQLVQSGAEVKKPGASVKVSCKASGYTFTGYYLHWVRQAPGQGLEWMGWINPNSGGTNYAQKFQGWVTMTRDTSISTAYMELSRLRSDDTAVYYCAVKDLDTMVRGGAFVFWGQGTMVTVSS
VL: DIQLTQSPSFLSASVGDRVTITCRASQGISSYLAWYQQKPGKAPKLLIYAASTLQSGVPSRFSGSGSGTEFTLTISSLQPEDFATYYCQQLNSFGGGTKVEIK
B10: G001_gp1_V06_VRC01c_2021-0023 (antibody, V domains shown)
VH: QVQLVQSGAEVKKPGASVKVSCKASGYTFTDYYIHWVRQAPGQGLEWMGWINPNSGGTNYAQKFQDWVTMTRDTSITTAYMELSRLRSDDTAVYYCARGVRYSSSWYFGYWGQGTLVTVSS
VL: QSALTQPASVSGSPGQSITISCTGTSSDVGGYNYVSWYQQHPGKAPKLMIYDVSNRPSGVSNRFSGSKSGNTASLTISGLQTEDEADYYCSSYEVFGTGTKVTVL
B11: G001_gp1_V06_VRC01c_2021-0007 (antibody, V domains shown)
VH: QVQLVQSGAEVKKPGASVKVSCKASGYTFTGSYMHWVRQAPGQGLEWMGWINPNSGGTNYAQKFQGWVTMTRDTSISTAYMELSRLRSDDTAVYYCATASSGSYYWYFDLWGRGTLVTVSS
VL: EIVMTQSPATLSVSPGERATLSCRASQSVSSNLAWYQQKPGQAPRLLIYGASTRATGIPARFSGSGSGTEFTLTISSLQSEDFAVYYCQQYETFGQGTKVEIK
B12: G001_gp1_V06_VRC01c_2021-0012 (antibody, V domains shown)
VH: not shown
VL: B11 VL with V29F, P40S, E92H, Q96P, E101D
B13: G001_gp1_V06_VRC01c_2021-0014 (antibody, V domains shown)
VH: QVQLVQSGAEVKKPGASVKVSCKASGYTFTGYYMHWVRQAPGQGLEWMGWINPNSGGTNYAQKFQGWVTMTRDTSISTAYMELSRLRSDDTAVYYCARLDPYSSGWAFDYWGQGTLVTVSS
VL: B11 VL with E92G
B14: G001_gp1_V06_VRC01c_81 (antibody, V domains shown)
VH: not shown
VL: B11 VL with S12C, E92N, T93N
B15: G001_gp1_V06_VRC01c_2021-0022 (antibody, V domains shown)
VH: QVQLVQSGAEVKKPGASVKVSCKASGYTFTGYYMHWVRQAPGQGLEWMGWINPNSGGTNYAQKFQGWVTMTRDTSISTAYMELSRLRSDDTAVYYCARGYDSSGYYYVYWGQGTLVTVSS
VL: B11 VL with E92N, T93N, K99R, V100L
B16: G001_gp1_V06_VRC01c_82 (antibody, V domains shown)
VH: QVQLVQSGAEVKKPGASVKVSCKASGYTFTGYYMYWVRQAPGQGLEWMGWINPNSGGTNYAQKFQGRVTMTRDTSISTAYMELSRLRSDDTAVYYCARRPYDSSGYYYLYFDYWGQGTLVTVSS
VL: B11 VL with Q96G
B17: G001_gp1_V06_VRC01c_2021-0005 (antibody, V domains shown)
VH: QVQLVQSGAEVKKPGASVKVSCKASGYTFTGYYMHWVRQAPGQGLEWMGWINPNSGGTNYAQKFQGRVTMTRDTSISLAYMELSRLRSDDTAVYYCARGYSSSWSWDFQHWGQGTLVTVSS
VL: DIQMTQSPSTLSASVGDRVTITCRASQSISSWLAWYQQKPGKAPKLLIYKASSLESGVPSRFSGSGSGTEFTLTISSLQPDDFATYYCQQYETFGQGTKVEIK
B18: G001_gp1_V06_VRC01c_2021-0030 (antibody, V domains shown)
VH: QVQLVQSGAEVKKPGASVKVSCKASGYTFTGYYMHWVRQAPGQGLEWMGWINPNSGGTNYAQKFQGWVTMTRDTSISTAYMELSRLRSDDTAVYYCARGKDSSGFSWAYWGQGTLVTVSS
VL: B17 VL with E92A
B19: G001_gp1_V06_VRC01c_2021-0018 (antibody, V domains shown)
VH: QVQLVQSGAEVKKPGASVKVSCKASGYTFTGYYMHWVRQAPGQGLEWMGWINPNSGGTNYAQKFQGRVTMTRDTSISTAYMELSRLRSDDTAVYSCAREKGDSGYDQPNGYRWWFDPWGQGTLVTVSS
VL: B17 VL
B20: G001_gp1_V06_VRC01c_2021-0015 (antibody, V domains shown)
VH: not shown
VL: B17 VL with Y91W
B21: G001_LD_V05_VRC01c_17 (antibody, V domains shown)
VH: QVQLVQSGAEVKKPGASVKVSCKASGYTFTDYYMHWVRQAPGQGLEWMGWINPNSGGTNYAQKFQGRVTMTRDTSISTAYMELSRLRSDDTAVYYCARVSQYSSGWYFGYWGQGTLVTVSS
VL: DIQMTQSPSSLSASVGDRVTITCQASQDISNYLNWYQQKPGKAPKLLIYDASNLETGVPSRFSGSGSGTDFTFTISSLQPEDIATYYCQQYEFFGGGTKVEIK
B22: G001_gp1_V06_VRC01c_2021-0008 (antibody, V domains shown)
VH: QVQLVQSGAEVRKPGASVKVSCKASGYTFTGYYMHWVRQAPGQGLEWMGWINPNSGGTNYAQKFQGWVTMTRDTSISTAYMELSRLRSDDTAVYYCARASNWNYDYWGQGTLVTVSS
VL: B21 VL with E55Q, E92D
B23: G001_gp1_V06_VRC01c_83 (antibody, V domains shown)
VH: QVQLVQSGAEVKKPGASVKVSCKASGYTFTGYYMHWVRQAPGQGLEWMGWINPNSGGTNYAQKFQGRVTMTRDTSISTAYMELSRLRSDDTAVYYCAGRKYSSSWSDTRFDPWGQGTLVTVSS
VL: B21 VL with S30N, F93A, G96Q
B24: G001_gp1_V06_VRC01c_2021-0004 (antibody, V domains shown)
VH: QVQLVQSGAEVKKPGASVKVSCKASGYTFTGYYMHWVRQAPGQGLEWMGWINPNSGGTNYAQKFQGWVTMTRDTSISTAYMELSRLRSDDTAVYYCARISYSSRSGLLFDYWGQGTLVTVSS
VL: B21 VL with E92N, F93T
B25: G001_LD_V05_VRC01c_21 (antibody, V domains shown)
VH: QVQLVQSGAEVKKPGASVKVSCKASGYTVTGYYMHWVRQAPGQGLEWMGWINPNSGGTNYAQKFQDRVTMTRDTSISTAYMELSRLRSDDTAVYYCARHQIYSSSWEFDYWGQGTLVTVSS
VL: B21 VL with S77I, I83T, E92D, F93T, G96P, E101D
B26: G001_gp1_V06_VRC01c_2021-0020 (antibody, V domains shown)
VH: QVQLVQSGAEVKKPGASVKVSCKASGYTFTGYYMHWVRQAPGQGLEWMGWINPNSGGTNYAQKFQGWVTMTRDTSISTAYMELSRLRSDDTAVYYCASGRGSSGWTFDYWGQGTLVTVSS
VL: B21 VL with Y32F, Y36F, E92D, F93N, G96P, E101D
B27: G001_gp1_V06_VRC01c_2021-0021 (antibody, V domains shown)
VH: QVQLVQSGAEVKKPGASVKVSCKASGYTFTGDYMHWVRQAPGQGLEWMGWINPNSGGTNYAQKFEGWVTMTRDTSISTAYMELSRLRSDDTAVYYCARTPYSSSWLFNYWGQGTLVTVSS
VL: B21 VL with Y32F, D70N, E92D, F93L, G96P, E101D
B28: G001_LD_V05_VRC01c_20 (antibody, V domains shown)
VH: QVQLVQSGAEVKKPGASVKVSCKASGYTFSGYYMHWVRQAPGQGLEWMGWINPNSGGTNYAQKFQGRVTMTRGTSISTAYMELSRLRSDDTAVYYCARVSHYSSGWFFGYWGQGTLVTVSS
VL: B21 VL with E92D
B29: G001_gp1_V06_VRC01c_2021-0006 (antibody, V domains shown)
VH: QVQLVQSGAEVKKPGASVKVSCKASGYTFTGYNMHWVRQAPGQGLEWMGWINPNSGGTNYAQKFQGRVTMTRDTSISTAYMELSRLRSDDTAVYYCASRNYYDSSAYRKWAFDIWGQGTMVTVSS
VL: B21 VL with S30N, F93T, G96Q, K99R, V100L
B30: G001_LD_V05_VRC01c_29 (antibody, V domains shown)
VH: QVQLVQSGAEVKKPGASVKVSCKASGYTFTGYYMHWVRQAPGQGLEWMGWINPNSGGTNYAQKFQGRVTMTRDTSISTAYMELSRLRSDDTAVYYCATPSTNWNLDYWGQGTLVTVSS
VL: B21 VL with T74S, E81D, F93G, G96P, E101D
B31: G001_LD_V05_VRC01c_30 (antibody, V domains shown)
VH: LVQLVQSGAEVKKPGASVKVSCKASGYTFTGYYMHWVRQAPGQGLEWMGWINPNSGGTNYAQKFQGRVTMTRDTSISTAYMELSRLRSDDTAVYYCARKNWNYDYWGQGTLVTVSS
VL: B21 VL with A13T, S30T, E92D, F93N
B32: G001_gp1_V06_VRC01c_79 (antibody, V domains shown)
VH: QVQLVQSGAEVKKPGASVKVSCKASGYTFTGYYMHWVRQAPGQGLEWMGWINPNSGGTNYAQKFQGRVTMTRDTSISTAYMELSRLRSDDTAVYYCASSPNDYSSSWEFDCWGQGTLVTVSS
VL: EIVLTQSPGTLSLSPGERATLSCRASQSSSHLAWYQQKHGQAPRLLIYGASSRATGIPDRFSGSGSGTDFTLTISRLEPEDFAVYHCQQYETFGQGTKVEIK
B33: G001_gp1_V06_VRC01c_76 (antibody, V domains shown)
VH: QVHLVQSGAEVKKPGASVKVSCKASEYTFSDYYMHWVRQAPGQGLEWMGWINPNSGGTNYAQKFQGRVTMTRDTSISTAYMELSRLRSDDTAVYYCATRGTGRYSYGSGTFYDYWGQGTLVTVSS
VL: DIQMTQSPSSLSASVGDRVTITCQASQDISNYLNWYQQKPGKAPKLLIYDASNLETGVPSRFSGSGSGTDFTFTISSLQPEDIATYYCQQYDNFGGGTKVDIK

This assay has as its target eOD-GT8 (engineered outer domain germline-targeting version 8), monomer (HIV-1 gp120 engineered outer domain, …).
Take B1: the binding result was “binds”.

For the molecule B2, the binding result is recorded as “binds”.

On to B3, for which the binding result was “binds”.

In the case of B4, the binding result is given as “binds”.

B5: the binding result is “binds”.

Consider B6, for which the binding result is “binds”.

For the molecule B7, the binding result is “binds”.

Regarding B8, the binding result is “binds”.

In the case of B9, the binding result is listed as “binds”.

B10: the binding result is “binds”.

With B11, the binding result is reported as “binds”.

For B12, the binding result is listed as “binds”.

For the molecule B13, the binding result was “binds”.

In the case of B14, the binding result is on record as “binds”.

Take B15: the binding result is “binds”.

In the case of B16, the binding result is “binds”.

B17: the binding result was “binds”.

For the molecule B18, the binding result is “binds”.

For the molecule B19, the binding result is “binds”.

For B20, the binding result is listed as “binds”.

B21: the binding result is given as “binds”.

B22: the binding result was “binds”.

Take B23: the binding result is “binds”.

Regarding B24, the binding result was “binds”.

As to B25, the binding result is “binds”.

As to B26, the binding result is listed as “binds”.

Turning to B27, the binding result was “binds”.

As to B28, the binding result is listed as “binds”.

As to B29, the binding result was “binds”.

As for B30, the binding result was “binds”.

In the case of B31, the binding result is “binds”.

As to B32, the binding result was “binds”.

In the case of B33, the binding result is on record as “binds”.
